Data on one molecule can be found in paper PMC11302882, “tRF-27 competitively Binds to G3BPs and Activates MTORC1 to Enhance HER2 Positive Breast Cancer Trastuzumab Tolerance”.

The target in series [1] is T1, HA-G3BP2 lacking NTF2 domain (UniProt Q9UN86 1-10+134-482, internal_change).
T1 sequence: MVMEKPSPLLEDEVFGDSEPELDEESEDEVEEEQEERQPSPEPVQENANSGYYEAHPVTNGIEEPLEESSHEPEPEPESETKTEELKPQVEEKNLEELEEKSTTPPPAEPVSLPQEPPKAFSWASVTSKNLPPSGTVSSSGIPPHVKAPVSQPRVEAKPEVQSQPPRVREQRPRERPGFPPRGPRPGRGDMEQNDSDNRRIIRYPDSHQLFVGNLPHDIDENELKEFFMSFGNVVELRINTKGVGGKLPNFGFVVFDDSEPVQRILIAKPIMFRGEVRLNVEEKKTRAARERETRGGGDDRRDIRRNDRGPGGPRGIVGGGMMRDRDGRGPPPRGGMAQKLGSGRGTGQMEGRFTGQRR
In words: EMSA; not stated; BeyoMag Chemiluminescent RNA EMSA Kit per manufacturer; biotin-RNA pull-down from cell lysates. Conditions: protein: recombinant; tags: N-terminal HA; label: biotin; predicted loop.

For the next series, the target named is T2, HA-G3BP2 full length (UniProt Q9UN86 1-482).
T2 sequence: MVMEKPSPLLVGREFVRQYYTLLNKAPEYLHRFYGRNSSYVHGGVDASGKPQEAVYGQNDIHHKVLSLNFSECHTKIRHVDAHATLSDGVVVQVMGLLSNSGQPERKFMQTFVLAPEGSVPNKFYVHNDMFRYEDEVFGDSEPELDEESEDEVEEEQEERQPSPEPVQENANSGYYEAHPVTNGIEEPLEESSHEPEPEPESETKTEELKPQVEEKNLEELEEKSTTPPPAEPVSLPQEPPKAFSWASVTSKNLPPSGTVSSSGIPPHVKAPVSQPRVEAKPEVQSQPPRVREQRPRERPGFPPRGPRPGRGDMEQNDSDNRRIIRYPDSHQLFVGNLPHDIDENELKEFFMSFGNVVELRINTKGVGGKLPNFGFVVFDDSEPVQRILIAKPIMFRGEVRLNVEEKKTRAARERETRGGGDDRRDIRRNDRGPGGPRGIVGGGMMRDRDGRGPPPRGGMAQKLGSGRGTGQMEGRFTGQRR
The description is as above. To be noted: protein: recombinant; tags: N-terminal HA; chain copies: 2; label: biotin; predicted loop.

With UUGACUGCAGAUCAAGAGGUCCCCGGU (ssRNA) [tRF-27 (tRF-27-ZDXPHO53KSN)], the figures for the binding result (in series [1]; with HA-G3BP2 full length) were “no binding” and “binds”, respectively.
